Measurements taken from US20210139581A1 (Alector, published 2021).
Positions count from the first letter of the chain named.

B1: AB-14.1 (antibody, V domains shown)
VH: QVQLVQSGAEVKKPGASVKVSCKASGATFTDYNFHWVRQAPGQGLEWIGFIYPSNGITGYAQDFQGRVTMTVDTSTSTVYMELSSLRSEDTAVYYCARSDVDYFDYWGQGTLVTVSS
VL: DIQMTQSPSSLSASVGDRVTITCRASQSVSTSTYSYMHWYQQKPGKAPKLLIKYASNLESGVPSRFSGSGSGTDFTLTISSLQPEDFATYYCQHSWEIPLTFGQGTKLEIK
B2: AB-14.6 (antibody, V domains shown)
VH: B1 VH with A27Y, F34Y, D63K
VL: B1 VL with S30G, N57A
B3: AB-14.2 (antibody, V domains shown)
VH: B1 VH with F34Y, D63K, G66D, D100F
VL: B1 VL with S28D
B4: AB-14.7 (antibody, V domains shown)
VH: B1 VH with A27Y, F34Y, D63K
VL: B1 VL with S30G
B5: AB-14.4 (antibody, V domains shown)
VH: B1 VH with A27Y, F34Y, D63K, R98D, D100T
VL: B1 VL with S28D, A55V
B6: AB-14.3 (antibody, V domains shown)
VH: B1 VH with A27Y, F34Y, Y60S, D63K
VL: B1 VL with S28D, A55V
B7: AB-14.5 (antibody, V domains shown)
VH: B1 VH with A27Y, F34Y, D63K
VL: B1 VL with S28D, Q42R
B8: AB-63.18 (antibody, V domains shown)
VH: B1 VH with A16S, A27Y, F29H, F34L, D63K
VL: DIVLTQSPDSLAVSLGERATINCRASQSVSTSTYSYMHWYQQKPGQPPKLLIKYESNLESGVPDRFSGSGSGTDFTLTISSLQAEDVAVYYCQHSWEIPLTFGQGTKLEIK
B9: AB-63.17 (antibody, V domains shown)
VH: B1 VH with A27Y, F34Y, D63K
VL: B8 VL with A25G
B10: AB-63.16 (antibody, V domains shown)
VH: B1 VH with A27Y, F34Y, D63K
VL: B8 VL with S30H, E55A
B11: AB-H3 (antibody, V domains shown)
VH: B1 VH with V20I, A27Y, F34L, D63K, V68A, M70L, V79A, D100T, V113L
VL: B1 VL with K53Y
notes: Humanized variant of murine 2F5.1
B12: AB-H71 (antibody, V domains shown)
VH: QVQLVQSGAELKKPGASVKVSCKASGYTFTDYNLHWVRQAPGQRLEWIGFIYPSNGITGYSQKFQGKATLTVDTSASTAYMELSSLRSEDTAVYYCARSTVDYFDYWGQGTTVTVSS
VL: B8 VL with E55A
notes: Humanized variant of murine 2F5.1; also called AB-71
B13: AB-H26 (antibody, V domains shown)
VH: B12 VH with L11V, K67R
VL: B1 VL
notes: Humanized variant of murine 2F5.1; also called AB-26
B14: AB-H22 (antibody, V domains shown)
VH: B12 VH with L11V, V20I, S61N, Q65K, G66N
VL: B1 VL
notes: Humanized variant of murine 2F5.1; also called AB-22
B15: AB-H24 (antibody, V domains shown)
VH: B12 VH with L11V, V20I
VL: B1 VL
notes: Humanized variant of murine 2F5.1; also called AB-24
B16: AB-H6 (antibody, V domains shown)
VH: B1 VH with A27Y, F34L, I48M, D63K, V79A, D100T, L112T
VL: B1 VL with K53Y
notes: as for B11
B17: AB-H1 (antibody, V domains shown)
VH: B1 VH with A27Y, F34L, I48M, D63K, V72R, D100T
VL: B1 VL with K53Y
notes: as for B11
B18: AB-H11 (antibody, V domains shown)
VH: B12 VH with L11V, R44S
VL: B1 VL with K53Y
notes: as for B11

target: T1, human CD33 on primary human monocyte-derived dendritic cells (human, UniProt P20138 18-364); test: cell-based or functional assay
T1 sequence (P20138 18-364): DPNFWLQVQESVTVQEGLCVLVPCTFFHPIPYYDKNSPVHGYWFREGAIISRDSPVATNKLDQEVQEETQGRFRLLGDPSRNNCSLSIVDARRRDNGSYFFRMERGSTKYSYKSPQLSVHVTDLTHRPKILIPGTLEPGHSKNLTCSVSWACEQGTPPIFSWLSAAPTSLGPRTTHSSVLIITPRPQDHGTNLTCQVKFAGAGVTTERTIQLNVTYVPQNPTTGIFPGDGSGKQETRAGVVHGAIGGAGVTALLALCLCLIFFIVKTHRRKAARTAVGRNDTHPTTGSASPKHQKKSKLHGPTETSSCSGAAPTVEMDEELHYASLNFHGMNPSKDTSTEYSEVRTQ

Binder | Maximal Downregulation (% CD33 remaining) [%] | Receptor downregulation (EC50) [pM]
B1 | 18.6 | 92.7
B2 | 24 | 32.4
B3 | 23.8 | 55
B4 | 23.4 | 35.1
B5 | 27.6 | 58.2
B6 | 25.4 | 43
B7 | 26.4 | 34.2

target: T2, human CD33 (human, UniProt P20138 18-259, limits assumed); test: BLI (ForteBio), Fab 100 nM on immobilized CD33
T2 construct: Human CD33 immobilized on the BLI sensor tip or the BIAcore C1 chip; also called Siglec-3
Description: The affinities (KD) of the humanized antibodies for human CD33 were measured for each antibody by BioLayer Interferometry in a ForteBio assay according to standard techniques (Estep et al. (2013) MAbs 5(2): 270-8). […] The assay was carried out at room temperature.
The affinities of AB-H14 and its affinity-matured variants (Table 15) and AB-H63 and its affinity-matured variants (Table 16), for human CD33 were measured by Fortebio assay according to the method described in Example 1 above.

T2 sequence (P20138 18-259 limits assumed): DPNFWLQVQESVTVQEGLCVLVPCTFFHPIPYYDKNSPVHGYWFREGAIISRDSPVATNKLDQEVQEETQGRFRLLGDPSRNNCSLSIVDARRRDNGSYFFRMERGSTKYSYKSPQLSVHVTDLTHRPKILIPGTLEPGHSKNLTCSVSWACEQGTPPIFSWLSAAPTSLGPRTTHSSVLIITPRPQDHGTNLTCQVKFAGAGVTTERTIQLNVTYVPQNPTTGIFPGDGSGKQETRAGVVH

Binder | Fold affinity improvement over parental Ab (AB-H14) [fold] | Kd [pM] | koff [s⁻¹] | kon [M⁻¹ s⁻¹] | Fold affinity improvement over parental Ab (AB-H63) [fold]
B1 | 9.73 | ≤ 299 | ≤ 0.0002 | 670000 | 
B2 | 9.83 | 295 | 0.000264 | 894000 | 
B3 | 14.4 | 202 | 0.0002 | 991000 | 
B4 | 11.8 | 246 | 0.0002 | 813000 | 
B5 | 13 | 224 | 0.0002 | 895000 | 
B8 |  | 613 |  |  | 4.44
B6 | 12.3 | 236 | 0.0002 | 847000 | 
B7 | 13.7 | 212 | 0.0002 | 945000 | 

target: T1, human CD33 on primary human …; test: cell-based or functional assay; remark: another data set of the same source

Binder | Maximal Downregulation (% CD33 remaining) [%] | Receptor downregulation (EC50) [pM]
B9 | 27.2 | 52.2
B8 | 26.8 | 62.9
B10 | 23.4 | 29.3

target: T1, human CD33 on primary human …; test: cell-based or functional assay; remark: another data set of the same source

Binder | Maximal Downregulation (% CD33 remaining) [%] | Receptor downregulation (EC50) [pM]
B11 | 21.2 | 93.3
B12 | 25.8 | 41.2
B13 | 21.9 | 51.9
B14 | 22.6 | 90.1
B15 | 22.2 | 72.5
B16 | 20.6 | 169
B17 | 25 | 127
B18 | 23.3 | 77.2

target: T2, human CD33; test: SPR (BIAcore), Fab over CD33 on C1 chip
Description: The affinity parameters for 10 of the 88 humanized antibodies (AB-H1, AB-H3, AB-H6, AB-H11, AB-H22, AB-H24, AB-H26, AB-H63, AB-H64, and AB-H71) were measured in a separate experiment by a more sensitive technique, surface plasmon resonance (BIAcore), and compared to Chimeric Ab and Chimeric Ab #2. BIAcore measurements were performed as follows: human CD33 was immobilized on the surface of a C1 chip, and Fabs were injected for 300 s to monitor association, followed by a 900 s flow in running buffer to monitor dissociation. The Fabs were measured at 5 concentrations: a high concentration of 27 nM and 3-fold serial dilutions.

Binder | Fold Change to Chimeric Ab [fold] | Kd [pM] | koff [s⁻¹] | kon [M⁻¹ s⁻¹]
B11 | 1.43 | 1130 | 0.0014 | 1.23e+06
B12 | 0.87 | 1880 | 0.00351 | 1.87e+06
B13 | 0.28 | 5860 | 0.00234 | 400000
B14 | 0.62 | 2630 | 0.00182 | 690000
B15 | 0.27 | 6020 | 0.00228 | 379000
B16 | 1.18 | 1370 | 0.00151 | 1.1e+06
B17 | 1.03 | 1580 | 0.00186 | 1.18e+06
B18 | 1.22 | 1330 | 0.00162 | 1.22e+06
